The source of these data is patent US20250011455A1 (HANGZHOU BANGSHUN PHARMACEUTICAL, published 2025).

Positions count from the first letter of the chain named. Names may count otherwise.

Experiment [1] addresses T1, human CD39 on the cell surface (human, UniProt P49961 1-510).
T1 construct: whole, on cells; also called hCD39; NTPDase 1
T1 sequence (looked up): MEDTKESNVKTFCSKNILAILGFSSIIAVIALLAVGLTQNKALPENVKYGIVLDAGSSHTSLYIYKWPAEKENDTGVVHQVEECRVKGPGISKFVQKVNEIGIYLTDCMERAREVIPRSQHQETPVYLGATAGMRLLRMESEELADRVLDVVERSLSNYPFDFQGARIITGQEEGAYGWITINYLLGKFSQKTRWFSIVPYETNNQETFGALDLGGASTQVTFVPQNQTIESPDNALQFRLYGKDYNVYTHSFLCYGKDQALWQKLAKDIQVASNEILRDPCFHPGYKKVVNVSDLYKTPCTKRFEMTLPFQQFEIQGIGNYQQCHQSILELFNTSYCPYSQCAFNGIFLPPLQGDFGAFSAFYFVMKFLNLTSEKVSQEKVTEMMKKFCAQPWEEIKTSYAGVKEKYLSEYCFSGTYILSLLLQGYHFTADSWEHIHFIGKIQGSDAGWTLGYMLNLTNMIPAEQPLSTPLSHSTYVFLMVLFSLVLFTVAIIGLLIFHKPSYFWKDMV
Put plainly: FACS on CHOK1-hCD39 cells, FITC-labelled goat anti-human IgG Fc secondary antibody, mean fluorescence intensity (MFI). The protocol:
The binding of the chimeric antibody F03 of the present invention to CD39 on the cell membrane surface was assayed by FACS. Specifically, CHOK1-hCD39 cells were collected and added to a 96-well plate at 1-3×10⁵ cells/well, the serially diluted chimeric antibody F03 (diluted with 1×PBS to 16.7 μg/mL as an initial concentration, 3-fold gradient dilution) was added, and the mixture was incubated at 4° C. for 30 min; after washing with PBS, an FITC-labeled goat anti-human IgG Fc secondary antibody (Jackson Immunoresearch, 109095008) diluted at 1:200 was added, and the resulting mixture was incubated at 4° C. for 30 min; after washing with PBS, the cell fluorescence intensity was detected using an FACS instrument (Beckman). Data were processed by GraphPad software.

Experiment [2] deals with T2, hCD39-ECD-His (ACRO, CD9-H52H4) (human, UniProt P49961 38-478).
T2 construct: extracellular domain; Bought protein; also called recombinant antigen; target antigen; not shown: His tag
T2 sequence (looked up): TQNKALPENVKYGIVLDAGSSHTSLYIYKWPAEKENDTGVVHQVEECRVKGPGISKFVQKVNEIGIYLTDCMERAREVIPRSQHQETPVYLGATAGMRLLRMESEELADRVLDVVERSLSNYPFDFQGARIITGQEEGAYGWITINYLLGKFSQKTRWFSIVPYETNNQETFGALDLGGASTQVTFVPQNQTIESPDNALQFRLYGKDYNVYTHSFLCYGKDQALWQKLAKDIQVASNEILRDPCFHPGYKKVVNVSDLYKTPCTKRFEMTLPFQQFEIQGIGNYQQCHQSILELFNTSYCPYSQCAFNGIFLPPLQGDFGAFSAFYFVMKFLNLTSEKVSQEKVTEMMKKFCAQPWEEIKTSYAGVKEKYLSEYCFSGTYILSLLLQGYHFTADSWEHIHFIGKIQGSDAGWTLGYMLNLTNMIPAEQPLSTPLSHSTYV
In words: SPR, Biacore 8K, antibody captured by anti-human IgG Fc, hCD39-ECD-His as analyte. The protocol: The binding kinetics between humanized antibodies and a recombinant antigen were tested using Biacore 8K (GE, biomolecule interaction analyzer). Specifically, an anti-human IgG Fc antibody was directly immobilized on a biosensor chip to capture a test antibody. The antigen hCD39-ECD-His (ACRO, CD9-H52H4) was used as the mobile phase, and 7 concentration gradients (at an initial concentration of 200 nM, 2-fold gradient dilution) were used. The association rate constant ka (M⁻¹ s⁻¹) and dissociation rate constant kd (s⁻¹) were determined. Then, based on the formula KD=kd/ka and the kinetic rate constants, the equilibrium dissociation constant KD (M) of the reaction between the antibody and the relevant target protein was calculated. The humanized antibodies of the present invention maintained high affinity of the chimeric antibody F03 for the target antigen.
(Surface plasmon resonance follows binding to a sensor surface in real time, without labels.)

Experiment [3] deals with T1, human CD39 on the cell surface. In words: cell-based or functional assay.
Experiment [4] has the same target. In words: FACS on SK-MEL-28 cells (natural human CD39).

B1: chimeric antibody F03 (antibody, human IgG4 S228P, kappa, V domains shown)
VH: QVQLQQPGAELVKPGASVKLSCKTSGYTFTNYWMYWVKHRPGRGLEWIGRIAPSSGATKYNEKFKNKATLTVDKPSSTAYMQLSSLTSEDSAVYYCARSGIYYDYDWFFDVSGTGTTVTVSS
VL: DIQMTQSPSSLSASLGGKVTITCKASQDINKYIGWYQHAPGKGPRLLIHYTSTLQPGIPSRFSGSGSGRDYSLSISNLEPEDIATYYCLQYHALLFTFGSGTKLELKR
notes: Variable regions of murine mF03 on human IgG4 (S228P) and human kappa constant regions; expressed in CHO-S cells
The term EC50 denotes the concentration that produces a half-maximal response. A word on the Kd: it is a measure of binding affinity in units of concentration. Broadly, the koff is a measure of how fast the partners let go of each other. Read a low koff as a long-lived complex. Usually kon stands for a measure of how fast the partners come together. With B1, in experiment [1], the midpoint of the response, the EC50, lay at 2.19 µg/mL. For the same molecule, in experiment [2], the Kd was 2.67 nM, the koff was 0.000252 s⁻¹ and the kon was 94300 M⁻¹ s⁻¹. For the same molecule, the “Enzymatic activity inhibition (EC50 nM)” value in experiment [3] was found to be 0.09 nM. In addition, in experiment [4], it took 2.07 nM to reach a half-maximal effect (EC50).

B2: humanized antibody F03-12 (antibody, human IgG4 S228P, kappa, V domains shown)
VH: QVQLVQSGAEVKKPGASVKVSCKASGYTFTNYWMYWVRQAPGQGLEWMGRIAPSSGATKYNEKFKNRVTLTVDTSISTAYMELSRLRSDDTAVYYCARSGIYYDYDWFFDVWGQGTTVTVSS
VL: DIQMTQSPSSLSASVGDRVTITCKASQDINKYIGWYQQKPGKAPKLLIHYTSTLQPGVPSRFSGSGSGRDYTFTISSLQPEDIATYYCLQYHALLFTFGQGTKLEIKR
notes: Human IgG4 (S228P) and human kappa constant regions
For the molecule B2, in experiment [2], the Kd was determined as 3.68 nM, the koff is 0.000331 s⁻¹ and the kon worked out at 89900 M⁻¹ s⁻¹. The “Enzymatic activity inhibition (EC50 nM)” value in experiment [3] was 0.06 nM. In addition, the EC50 in experiment [4] was 1.12 nM.

B3: humanized antibody F03-8 (antibody, human IgG4 S228P, kappa, V domains shown)
VH: B2 VH with M48I, V68A
VL: B2 VL with R69T, Y71F
notes: as for B2
Regarding B3, the “Enzymatic activity inhibition (EC50 nM)” value in experiment [3] was determined as 0.06 nM. Besides, in experiment [4], the EC50 is 1 nM.

B4: humanized antibody F03-13 (antibody, human IgG4 S228P, kappa, V domains shown)
VH: B2 VH with M48I, V68A
VL: B2 VL
notes: as for B2
As to B4, in experiment [3], the “Enzymatic activity inhibition (EC50 nM)” value came to 0.09 nM. For the same molecule, a half-maximal effect in experiment [4] (EC50) was put at 1 nM.

B5: humanized antibody F03-6 (antibody, human IgG4 S228P, kappa, V domains shown)
VH: B2 VH with L70M, V72R
VL: B2 VL with R69T, Y71F
notes: Human IgG4 (S228P) heavy chain constant region and human kappa constant region
Regarding B5, the “Enzymatic activity inhibition (EC50 nM)” value in experiment [3] worked out at 0.09 nM. This molecule registered an EC50 in experiment [4] of 1.27 nM.

B6: humanized antibody F03-14 (antibody, human IgG4 S228P, kappa)
heavy: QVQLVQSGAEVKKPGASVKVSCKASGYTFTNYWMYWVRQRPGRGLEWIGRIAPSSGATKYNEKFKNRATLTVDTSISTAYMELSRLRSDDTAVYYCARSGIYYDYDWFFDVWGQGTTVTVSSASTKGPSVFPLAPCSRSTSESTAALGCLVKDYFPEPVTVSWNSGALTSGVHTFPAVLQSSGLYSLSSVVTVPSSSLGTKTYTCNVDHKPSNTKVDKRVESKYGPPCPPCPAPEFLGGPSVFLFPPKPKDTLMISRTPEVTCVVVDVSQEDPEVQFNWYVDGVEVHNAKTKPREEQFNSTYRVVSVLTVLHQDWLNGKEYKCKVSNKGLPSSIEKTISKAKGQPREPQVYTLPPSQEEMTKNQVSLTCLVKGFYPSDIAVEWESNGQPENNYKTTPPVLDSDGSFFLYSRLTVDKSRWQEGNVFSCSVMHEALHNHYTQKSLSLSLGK
light: DIQMTQSPSSLSASVGDRVTITCKASQDINKYIGWYQQKPGKAPKLLIHYTSTLQPGVPSRFSGSGSGRDYTFTISSLQPEDIATYYCLQYHALLFTFGQGTKLEIKRTVAAPSVFIFPPSDEQLKSGTASVVCLLNNFYPREAKVQWKVDNALQSGNSQESVTEQDSKDSTYSLSSTLTLSKADYEKHKVYACEVTHQGLSSPVTKSFNRGEC
notes: as for B2
In experiment [2], B6 gave a Kd of 4.43 nM, a dissociation rate constant (koff) of 0.00031 s⁻¹ and an on-rate constant (kon) of 69800 M⁻¹ s⁻¹. In addition, the “Enzymatic activity inhibition (EC50 nM)” value in experiment [3] worked out at 0.05 nM. Moreover, the response in experiment [4] was half-maximal at 0.79 nM (EC50).

B7: humanized antibody F03-7 (antibody, human IgG4 S228P, kappa, V domains shown)
VH: B2 VH
VL: B2 VL with R69T, Y71F
notes: as for B2
As to B7, in experiment [3], the “Enzymatic activity inhibition (EC50 nM)” value worked out at 0.15 nM. This molecule came in with an EC50 in experiment [4] of 0.89 nM.

B8: humanized antibody F03-11 (antibody, human IgG4 S228P, kappa, V domains shown)
VH: B2 VH with L70M, V72R
VL: B2 VL
notes: as for B2
For B8, in experiment [2], the Kd was 4.2 nM, the koff stood at 0.000336 s⁻¹ and the association rate constant (kon) was 80100 M⁻¹ s⁻¹. Further, the “Enzymatic activity inhibition (EC50 nM)” value in experiment [3] amounted to 0.03 nM. For the same molecule, the concentration giving a half-maximal response (EC50) in experiment [4] worked out at 0.94 nM.

B9: humanized antibody F03-15 (antibody, human IgG4 S228P, kappa)
heavy: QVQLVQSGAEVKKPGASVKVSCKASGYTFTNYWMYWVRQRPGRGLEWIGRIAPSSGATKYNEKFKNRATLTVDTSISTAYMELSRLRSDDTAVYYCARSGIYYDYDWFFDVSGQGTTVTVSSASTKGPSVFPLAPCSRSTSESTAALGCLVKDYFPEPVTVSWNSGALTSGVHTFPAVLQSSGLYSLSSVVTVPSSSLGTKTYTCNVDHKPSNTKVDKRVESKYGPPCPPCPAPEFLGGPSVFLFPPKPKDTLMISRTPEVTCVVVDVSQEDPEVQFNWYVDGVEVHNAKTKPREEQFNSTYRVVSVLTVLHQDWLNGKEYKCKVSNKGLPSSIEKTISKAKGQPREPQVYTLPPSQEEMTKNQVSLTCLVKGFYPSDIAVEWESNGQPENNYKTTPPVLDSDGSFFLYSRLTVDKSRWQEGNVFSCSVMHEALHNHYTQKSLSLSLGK
light: B6 light
notes: as for B2
Take B9: in experiment [2], binding was characterised by a dissociation constant (Kd) of 3.33 nM, the koff was 0.000176 s⁻¹ and the kon was determined as 52800 M⁻¹ s⁻¹. Further, the “Enzymatic activity inhibition (EC50 nM)” value in experiment [3] is 0.02 nM. For the same molecule, the EC50 in experiment [4] was determined as 1.11 nM.
